Data reported in patent publication US20260242478A1 (published 2026).

B1: Phage-659 (peptide, not shown: large carriers)
peptide: YCAGHSPEYMGKCM
notes: Clonal phage supernatant of the Peptide-87 library
B2: Phage-632 (peptide)
peptide: YCAGHLPEYMQKCL
notes: Clonal phage displaying the peptide; not shown: fused to pIII of the bacteriophage
B3: Phage-643 (peptide)
peptide: YCEGHLPQYIPKCL
notes: as for B2
B4: Phage-639 (peptide)
peptide: YCDGHIPIYMSKCL
notes: as for B2
B5: Phage-635 (peptide)
peptide: YCDGHSDEYMAKCL
notes: as for B2
B6: Phage-637 (peptide)
peptide: YCDGHQPEYMAKCL
notes: as for B2
B7: Phage-658 (peptide, not shown: large carriers)
peptide: YCEGHTAEYLQKCL
notes: as for B1
B8: Phage-636 (peptide)
peptide: YCEGHSLEYIGKCL
notes: as for B2
B9: Phage-657 (peptide, not shown: large carriers)
peptide: YCAGHLPEHIGKCL
notes: as for B1
B10: Phage-633 (peptide)
peptide: YCDGHLGIYMWKCL
notes: as for B2
B11: Phage-631 (peptide)
peptide: YCEGHLPEYMSKCL
notes: as for B2
B12: Phage-638 (peptide)
peptide: YCAGHLPEYISKCL
notes: as for B2
B13: Phage-641 (peptide)
peptide: YCAGHLPLYMEKCL
notes: as for B2
B14: Phage-634 (peptide)
peptide: YCEGHSAEYMAKCL
notes: as for B2
B15: Phage-642 (peptide)
peptide: YCDGHSAEYMMKCL
notes: as for B2
B16: Phage-640 (peptide)
peptide: YCEGHLPQYLAKCL
notes: as for B2

Assays:
[1] = target: T1, Anti-CD28 Fab (SEQ ID NOs: 696, 697); experiment: phage binding ELISA; biotinylated anti-CD28 Fab on neutravidin plate, clonal phage supernatant, anti-M13 HRP detection
T1 construct: Biotinylated and captured on neutravidin coated plates in the phage ELISA
T1 sequence (VH, as listed by the source, chain 1 of 2): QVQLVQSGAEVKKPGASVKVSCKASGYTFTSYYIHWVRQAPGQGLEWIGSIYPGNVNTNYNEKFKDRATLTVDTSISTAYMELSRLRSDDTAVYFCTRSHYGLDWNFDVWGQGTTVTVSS
T1 sequence (VL, as listed by the source, chain 2 of 2): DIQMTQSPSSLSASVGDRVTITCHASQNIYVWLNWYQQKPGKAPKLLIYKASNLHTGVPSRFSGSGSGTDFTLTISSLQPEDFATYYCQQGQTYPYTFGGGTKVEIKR

[2] = target: T1, Anti-CD28 Fab (SEQ ID NOs: 696, 697); experiment: phage binding ELISA on anti-CD28 Fab plate pre-incubated with CD28 antigen as competitor; anti-M13 HRP detection
Experimental: (§1) After panning, phage infected bacteria were plated out and colonies picked into 96 well blocks. Clonal phage was then amplified and separated from bacterial cells via centrifugation.
(§2) Clonal phage were harvested as crude supematants and screened via standard ELISAs. […] Prior to the addition of clonal phage, wells were incubated with blocking buffer and CD28 antigen or blocking buffer alone. Without washing or aspirating, clonal phage supematants were then added to the wells and incubated for a short time. Wells were then washed followed by detection of bound phage using a horse radish conjugated anti-M13 antibody. Clonal phage of interest were then sent for sequence analysis.

[3] = target: T2, Anti-CD28 Fab (SEQ ID NOs: 696, 697) (biotinylated (site not stated)); experiment: phage binding ELISA; Fab-coated wells pre-incubated with CD28 antigen as competitor, then clonal phage, anti-M13 HRP detection
[4] = target: T2, Anti-CD28 Fab (SEQ ID NOs: 696, 697); experiment: phage binding ELISA; biotinylated anti-CD28 Fab on neutravidin plates, clonal phage supernatant, anti-M13 HRP detection
Experimental: as §1, §2

[5] = target: anti-CD28 Fab (SEQ ID NOs: 696, 697); experiment: phage binding ELISA; Fab on plate pre-incubated with CD28 antigen as competitor, anti-M13 HRP detection;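 also: crude clonal phage supernatants screened by ELISA, with comparison wells pre-incubated in blocking buffer only, lacking CD28 antigen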
Experimental: as §1, §2

[6] = target: anti-CD28 Fab (SEQ ID NOs: 696, 697); experiment: phage binding ELISA; biotinylated Fab on neutravidin plate, clonal phage supernatant, anti-M13 HRP detection;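 also: phage from clones picked after panning, added to wells pre-incubated with blocking buffer with or without CD28 antigen, then briefly incubated and washed before detection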
Experimental: as §1, §2

[7] = target: Anti-CD28 Fab (SEQ ID NOs: 696, 697); experiment: phage ELISA, biotinylated anti-CD28 Fab on neutravidin plate, anti-M13 HRP detection
Target sequence in this assay (VH, as listed by the source, chain 1 of 2): as the sequence (VH, as listed by the source, chain 1 of 2) above
Target sequence in this assay (VL, as listed by the source, chain 2 of 2): as the sequence (VL, as listed by the source, chain 2 of 2) above
Experimental: as §1, §2

[8] = target: Anti-CD28 Fab (SEQ ID NOs: 696, 697); experiment: phage ELISA on captured anti-CD28 Fab, wells pre-incubated with CD28 antigen as competitor;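 also: crude clonal phage supernatants added without washing, bound phage read out by HRP-coupled anti-M13 antibody, reference wells given blocking buffer only instead of CD28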
Target sequence in this assay (VH, as listed by the source, chain 1 of 2): as the sequence (VH, as listed by the source, chain 1 of 2) above
Target sequence in this assay (VL, as listed by the source, chain 2 of 2): as the sequence (VL, as listed by the source, chain 2 of 2) above
Experimental: as §1, §2

Sequence of anti-CD28 Fab (SEQ ID NOs: 696, 697) (VH, as listed by the source, chain 1 of 2): as the sequence (VH, as listed by the source, chain 1 of 2) above
Sequence of anti-CD28 Fab (SEQ ID NOs: 696, 697) (VL, as listed by the source, chain 2 of 2): as the sequence (VL, as listed by the source, chain 2 of 2) above
T2 sequence (VH, as listed by the source, chain 1 of 2): as the sequence (VH, as listed by the source, chain 1 of 2) above
T2 sequence (VL, as listed by the source, chain 2 of 2): as the sequence (VL, as listed by the source, chain 2 of 2) above

Binder	Anti-CD28 Fab signal in the presence of CD28 (phage binding ELISA) [3]	Anti-CD28 Fab signal (phage binding ELISA) [4]	Anti-CD28 Fab signal (phage binding ELISA) [7]	Anti-CD28 Fab signal in the presence of CD28 (phage binding ELISA) [8]	also measured
B1	–	–	–	–	Anti-CD28 Fab signal (phage binding ELISA) [1]: 2.09; Anti-CD28 Fab signal in the presence of CD28 (phage binding ELISA) [2]: 0.06
YCEGHSPQYMQKCL (tested as crude phage supernatant) [Phage-652]	0.06	2.1	–	–	–
YCAGHSPEYMTKCL (tested as crude phage supernatant) [Phage-621]	–	–	–	–	Anti-CD28 Fab signal in the presence of CD28 [5]: 0.09; Anti-CD28 Fab (SEQ ID NOs: 696, 697) signal [6]: 2.17
YCAGHLPQYMEKCM (tested as crude phage supernatant) [Phage-656]	0.08	2.09	–	–	–
YCDGHMPEYMLKCL (tested as crude phage supernatant) [Phage-649]	0.09	2.11	–	–	–
YCDGHSAEYMWKCL (tested as crude phage supernatant) [Phage-629]	–	–	–	–	Anti-CD28 Fab signal in the presence of CD28 [5]: 0.08; Anti-CD28 Fab (SEQ ID NOs: 696, 697) signal [6]: 2.15
YCMGHSEEYMQKCL (tested as crude phage supernatant) [Phage-646]	0.07	2.11	–	–	–
B2	–	–	2.15	0.09	–
B3	–	–	2.12	0.07	–
B4	–	–	2.13	0.08	–
B5	–	–	2.14	0.07	–
B6	–	–	2.14	0.07	–
YCAGHTQEYMSKCL (tested as crude phage supernatant) [Phage-651]	0.05	2.1	–	–	–
B7	–	–	–	–	Anti-CD28 Fab signal (phage binding ELISA) [1]: 2.09; Anti-CD28 Fab signal in the presence of CD28 (phage binding ELISA) [2]: 0.1
YCDGHLPEYMWKCI (tested as crude phage supernatant) [Phage-628]	–	–	–	–	Anti-CD28 Fab signal in the presence of CD28 [5]: 0.07; Anti-CD28 Fab (SEQ ID NOs: 696, 697) signal [6]: 2.15
B8	–	–	2.14	0.06	–
B9	–	–	–	–	Anti-CD28 Fab signal (phage binding ELISA) [1]: 2.09; Anti-CD28 Fab signal in the presence of CD28 (phage binding ELISA) [2]: 0.07
YCDGHLPVYMAKCL (tested as crude phage supernatant) [Phage-645]	0.09	2.11	–	–	–
B10	–	–	2.14	0.08	–
YCDGHSNEYMAKCL (tested as crude phage supernatant) [Phage-625]	–	–	–	–	Anti-CD28 Fab signal in the presence of CD28 [5]: 0.07; Anti-CD28 Fab (SEQ ID NOs: 696, 697) signal [6]: 2.16

Binder	Anti-CD28 Fab signal in the presence of CD28 (phage binding ELISA) [3]	Anti-CD28 Fab signal (phage binding ELISA) [4]	Anti-CD28 Fab signal (phage binding ELISA) [7]	Anti-CD28 Fab signal in the presence of CD28 (phage binding ELISA) [8]	also measured
YCDGHSLEYMAKCL (tested as crude phage supernatant) [Phage-630]	–	–	–	–	Anti-CD28 Fab signal in the presence of CD28 [5]: 0.06; Anti-CD28 Fab (SEQ ID NOs: 696, 697) signal [6]: 2.15
B11	–	–	2.15	0.07	–
YCDGHLEEYMAKCL (tested as crude phage supernatant) [Phage-648]	0.09	2.11	–	–	–
B12	–	–	2.14	0.08	–
B13	–	–	2.12	0.06	–
YCEGHLPQYLQKCL (tested as crude phage supernatant) [Phage-626]	–	–	–	–	Anti-CD28 Fab signal in the presence of CD28 [5]: 0.09; Anti-CD28 Fab (SEQ ID NOs: 696, 697) signal [6]: 2.16
YCDGHVAEYMAKCL (tested as crude phage supernatant) [Phage-627]	–	–	–	–	Anti-CD28 Fab signal in the presence of CD28 [5]: 0.07; Anti-CD28 Fab (SEQ ID NOs: 696, 697) signal [6]: 2.16
YCQGHLPQYIAKCL (tested as crude phage supernatant) [Phage-655]	0.08	2.09	–	–	–
B14	–	–	2.14	0.06	–
YCSGHAPIYMAKCL (tested as crude phage supernatant) [Phage-650]	0.07	2.1	–	–	–
YCDGHLPEYMHKCL (tested as crude phage supernatant) [Phage-647]	0.11	2.11	–	–	–
YCAGHAPEYIQKCL (tested as crude phage supernatant) [Phage-622]	–	–	–	–	Anti-CD28 Fab signal in the presence of CD28 [5]: 0.09; Anti-CD28 Fab (SEQ ID NOs: 696, 697) signal [6]: 2.17
YCAGHAPEYMQKCL (tested as crude phage supernatant) [Phage-624]	–	–	–	–	Anti-CD28 Fab signal in the presence of CD28 [5]: 0.07; Anti-CD28 Fab (SEQ ID NOs: 696, 697) signal [6]: 2.16
YCDGHMPEYMWKCL (tested as crude phage supernatant) [Phage-620]	–	–	–	–	Anti-CD28 Fab signal in the presence of CD28 [5]: 0.09; Anti-CD28 Fab (SEQ ID NOs: 696, 697) signal [6]: 2.17
YCDGHVAEYRDKCL (tested as crude phage supernatant) [Phage-623]	–	–	–	–	Anti-CD28 Fab signal in the presence of CD28 [5]: 0.07; Anti-CD28 Fab (SEQ ID NOs: 696, 697) signal [6]: 2.17
YCDGHVPQYMAKCL (tested as crude phage supernatant) [Phage-653]	0.07	2.1	–	–	–
YCDGHSAEYMSKCL (tested as crude phage supernatant) [Phage-654]	0.06	2.1	–	–	–
B15	–	–	2.12	0.08	–
B16	–	–	2.12	0.1	–
YCDGHAPQYMLKCL (tested as crude phage supernatant) [Phage-644]	0.09	2.12	–	–	–
